The values below come from patent US20110301098A1, “TREATMENT FOR INTIMAL HYPERPLASIA AND RELATED CONDITIONS” (priority 2006, published 2011).

Like-named read-outs stand apart in the source and are kept apart here. Positions of bridges follow the written chain, without caps; N, C: chain ends. Non-standard residues stand in square brackets, D forms with d. Residues, ends and D or L forms follow the SMILES beside them. *: point of attachment. Hydrocinnamoyl = O=C(CCc1ccccc1)*; dCha = N[C@H](CC1CCCCC1)C(=O)O; Orn = NCCC[C@H](N)C(=O)O

In data set [1] the target is T1, C5a receptor (Mus musculus, UniProt P30993).
T1 sequence (P30993 1-351): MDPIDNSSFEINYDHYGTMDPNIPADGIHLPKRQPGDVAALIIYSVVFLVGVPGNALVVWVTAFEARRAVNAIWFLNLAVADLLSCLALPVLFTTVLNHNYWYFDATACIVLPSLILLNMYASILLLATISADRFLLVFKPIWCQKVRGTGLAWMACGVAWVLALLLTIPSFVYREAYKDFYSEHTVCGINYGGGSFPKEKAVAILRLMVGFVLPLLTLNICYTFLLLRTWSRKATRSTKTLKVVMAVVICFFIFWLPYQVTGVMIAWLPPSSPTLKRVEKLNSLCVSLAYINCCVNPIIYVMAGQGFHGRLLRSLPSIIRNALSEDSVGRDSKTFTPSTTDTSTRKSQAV
The data set can be described thus: C5a receptor antagonist treatment in the ApoE-/- mouse vein graft model.
Protocol: (§1) Male ApoE^−/− mice, aged between 12 and 16 weeks, were used for all experiments. Mice were fed a standard chow diet, and received water and food ad libitum. Before surgery, mice were anesthetized by an intra-peritoneal injection with Midazolam (5 mg/kg, Roche), Medetomidine (0.5 mg/kg, Orion) and Fentanyl (0.05 mg/kg, Janssen). Cholesterol levels in serum were determined at the time of sacrifice.
(§2) Briefly, caval veins were harvested from genetically identical donor mice, and were preserved before implantation at 4° C. in 0.9% NaCl containing 100 U/ml of heparin. In the graft recipient, the right carotid artery was dissected and cut in the middle. A polyethylene cuff was placed at both ends of the artery. The artery was everted around the cuff and ligated with a silk 8.0 suture. The caval vein was sleeved over the two cuffs and ligated. Successful engraftment was confirmed by the presence of pulsations and turbulent blood flow within the vein graft. The whole procedure usually takes about 30 minutes.
(§3) Cross-sections of vein grafts were stained with hematoxylin-phloxine-saffron, using conventional methods. The intimal hyperplasia surface of the thickened vein grafts was measured using image analysis software (Qwin, Leica). For each vein graft, six equally spaced cross-sections were used to determine the degree of vessel wall thickening.
(§4) To identify macrophages and macrophage-derived foam cells, immunohistochemistry was performed using AIA31240 primary antibodies against mouse macrophages (1:3000, Accurate Chemical). The contribution of macrophages and foam cells to the intimal hyperplasia was measured by computer-assisted analysis (Qwin, Leica) as the area stained with antibody AIA31240, and expressed as a percentage of the total intimal hyperplasia surface.
(§5) In order to inhibit C5a function, 21 mice were randomly divided in to three groups, and were treated with the cyclic peptide C5a antagonists AcF-[OP-(D-Cha)WR] (AcF) or hydrocinnamate-[OP-(D-Cha)WR] (HC). […]

In data set [2] the target is T1, C5a receptor. The settings on record: in vivo.
Protocol: as §1, §2, §3, §4, §5
The subject of the next data set is PDGF receptor. Particulars: pretreatment of the vein grafts; cited from earlier work.
The test system of a further data set is vein grafts. As to the kind of experiment: Recombinant C5a applied to vein grafts in hypercholesterolaemic ApoE-/- mice. Particulars: for intimal hyperplasia surface: control 0.24±0.02; for macrophage/foam cell content of intimal hyperplasia: control 17±2%. The class given is in vivo, mouse. How it is done:
153: 1301-1310. […] The whole procedure usually takes about 30 minutes.
To examine the involvement of C5a in the development of vein graft thickening, we applied recombinant C5a in two concentrations (0.5 μg and 5 μg, dissolved in 100 μl 20% Pluronic gel, n=7 per group,) directly to the vein graft at the time of surgery. In the control group 100 μl of 20% Pluronic gel without C5a was applied.
Twenty-one mice were randomly divided into three groups. In the treatment groups, either 0.5 μg or 5 μg of E. coli-derived recombinant mouse C5a (HyCult Biotechnology) was dissolved in 0.1 ml of 20% Pluronic gel, and applied around the venous interposition at the time of surgery. In the control group 0.1 ml of 20% Pluronic gel was applied without C5a. Mice were sacrificed after 28 days.

Consider `CC(=O)N[C@@H](Cc1ccccc1)C(=O)N[C@H]1CCCNC(=O)[C@H](CCCNC(=N)N)NC(=O)[C@H](Cc2c[nH]c3ccccc23)NC(=O)[C@@H](CC2CCCCC2)NC(=O)[C@@H]2CCCN2C1=O` [AcF, AcF-[OP-(D-Cha)WR]], for which the “decrease in vein graft thickening compared to control mice” value on C5a receptor [1] (3 mg/kg/day s.c., 28 days after surgery) came out at 53%. In addition, the “body weight or serum cholesterol” value at C5a receptor [1] (between the different treatment groups) is “No differences”.
As to `N=C(N)NCCC[C@@H]1NC(=O)[C@H](Cc2c[nH]c3ccccc23)NC(=O)[C@@H](CC2CCCCC2)NC(=O)[C@@H]2CCCN2C(=O)[C@@H](NC(=O)CCc2ccccc2)CCCNC1=O` [HC, hydrocinnamate-[OP-(D-Cha)WR]] (Hydrocinnamoyl-[Orn]P[dCha]WR; lactam 1-C), the “body weight or serum cholesterol” value at C5a receptor [2] was “No differences”.
For the molecule `Cc1ccc(C(=O)Nc2ccc(S(=O)(=O)O)c3cc(S(=O)(=O)O)cc(S(=O)(=O)O)c23)cc1NC(=O)c1cccc(NC(=O)Nc2cccc(C(=O)Nc3cc(C(=O)Nc4ccc(S(=O)(=O)O)c5cc(S(=O)(=O)O)cc(S(=O)(=O)O)c45)ccc3C)c2)c1` [Suramin], the neointimal hyperplasia result in the data set with PDGF receptor is on record as “significant reduction”.

B1: C5a: E. coli-derived recombinant mouse C5a (HyCult Biotechnology) (protein, UniProt P06684 679-755, looked up)
C5a anaphylatoxin: NLHLLRQKIEEQAAKYKHSVPKKCCYDGARVNFYETCEERVARVTIGPLCIRAFNECCTIANKIRKESPHKPVQLGR
modifications: C5a anaphylatoxin
Regarding B1, the intimal hyperplasia surface in the data set with vein grafts (0.5 μg C5a in 20% Pluronic gel applied to vein graft at surgery, 28 days) is listed as 0.29±0.03 mm^2; in the data set on vein grafts (5 μg C5a in 20% Pluronic gel applied to vein graft at surgery, 28 days), 0.41±0.04 mm^2. Besides, the “macrophage/foam cell content of intimal hyperplasia” value in the data set with vein grafts (0.5 μg C5a, 28 days) is listed as 22±3%; with vein grafts (5 μg C5a, 28 days), 33±2%. Further, in the data set with vein grafts (0.5 μg and 5 μg C5a vs control), the “body weight and serum cholesterol” value is “did not differ”. Also, the luminal area result in the data set on vein grafts (0.5 μg and 5 μg C5a vs control, 28 days) was “No significant differences”.
